In a protein production outcome set (Wang et al. 2014):

Experiment: label from the status in PepcDB records

Row | Sequence | protein production
1 | MAGSHAGTLRVLQAVDTELTADSVEWCPVEGYQHLLACGTYQLRAPRDQPALDGSEPQVRLGRLYLFSFSEHNTAKPLLEVQRRDSSAVLDMKWCHIPVSGHVLLGLANASGSIGLLRLMECENNSYTLQPISSLALDENCLSLSMDWSTGKSVRAREQPLKIISSDSKGQLHLLMVNEGTAELQLVASWPAHHFEAWIAAFNYWQTELVYSGGDDCLLRGWDTRMLGTPVFTSKRHCMGVCSIQSSPHQEHILATGSYDEHVLLWDTRNIRQPLADVPVQGGVWRLKWHPVHHHLLLAACMHNGFKILNCQKAIEEKQDITVLTSHEMPNSLVYGADWSWLFHSMKPTPTWFFDQNDMGVKAADHSSLKVTEEPPIHSQEQTMDRQVEGPANAHTRAELKASLLPLTEDMKNSKDCSSSSVKTRDLSHCSGGQSFDNSLLATCSFYDHVLHLWKWETNQARTLCSGTGCDLGSADH | failed
2 | TAPTLAEEVKQQSDGSVIIEGSANLRDLNKLFNWHLPINEVRTFNGLILEHLEKIPIEGTQFRLNQLNITVLEVADNMVKKVKVELIE | not failed
3 | VDIMLNTADISAAAILLPVEGAQLSELRQIPAEGGPVLHMLRLDSPQFSQFGEIYFSEVLPRRVKAWKRHSLMTQLFAVPVGCIHVVLYDGREKSPTSGRLAQVTLGRPDNYRLLRIPPQVWYGFAATGDTPALVANCTDIPHRQGESERAPQDAPFIPFSWAGADLSGTPVM | not failed
4 | MILIRNVRLVDARGERGPADVLIGEGRILSLEGGEAKQVVDGTGCFLAPGFLDLHAHLREPGEEVKEDLFSGLLAAVRGGYTDLVSMPNTKPPVDTPEAVRALKEKAKALGLARLHPAAALTEKQEGKTLTPAGLLREAGAVLLTDDGRTNEDAGVLAAGLLMAAPLGLPVAVHAEDAGLRRNGVMNDGPLADLLGLPGNPPEAEAARIARDLEVLRYALRRSPATPRLHVQHLSTKRGLELVREAKRAGLPVTAEATPHHLTLTEEALRTFDPLFKVAPPLRGEEDREALLEGLLDGTLDAIATDHAPHTLAEKEKDLLRAPFGIPSLEVAFPLLYTELHLKRGFPLQRLVELFTDGPRRVLGLPPLHLEEGAEASLVLLSPKERPVDPSAFASKARYSPWAGWVLGGWPVLTLVAGRIVHEALK | not failed
5 | MDYATNCASLPKWHKVPLLSVCIPAYNRPQGLVAAVRSVVAALPREYHDQVEIVITDDSATRTAVDDLLAPWSGHWHYQHNAQRLGMVANWNTSLAKACGEFILLLHDDDYLLPQGITTILATLSQYGSQFDVFLFGVHLVDSHQRCLRRQIPRRQEWLSPAQALRQLLRHSSLVRFPALIWRRSLLDAVGYFDPTYGEATDLYQWLRFFAQKGVYTVPCATAAYRIHDQALTMGMFQAQTLATLGRIFAAAADLSLLSPAELRHCQCDFFHQFILAGTWRFLRRRQWQRAQAVYQLFDLPEVIALGRSRRWQGLRWLLGSWLWLLQQLSS | failed
6 | MYIICSQFSASEPVNPYALLGAAIVSELLGTTSLKLSEGFSRPVPSLGVVVGYGLAFYLVSLTLEDLPIGVVYGTWAALGIVGVAAIGIVVFDEPIDLPGAVGILLIIIGVYCVNVLSEMSAH | failed
7 | MLVTVMIPTYNQKDYVGSAIESALAQTYADLEIVVADDASPDPGVAKVLERYRNHPKVRLYRNAQNLGRVANYRKTLYERARGEWVINLDGDDYLVDPCFVEDAVGVVKKHPDIVAVLGGRKVLQASGTHKVQQANVCLSGRVAPRDVFSGILDGTLFPYHNATLYSRTHALAIGFYEQDIVSSDLESFLRLFARGAVGVLPRIVGVWREHSGNTSGTMAFSDYLANIQVFESVMHTAEEPDIAVKSSFLKSWSSRYAYSKGKDYAYRLLKDSDSPSLCFGYLKRLSKVSSVAALRILIQPKVLFNLLARALPSQISRCFR | failed
8 | MLTLDLSAVRCQNGVPFLRYYWNLPVNQSHSGPLANNHAQLGLLFISVAVLFWGMLPIALKLSGSFIDPVTLTWFRFLVALIVSILVQWSAGSLKQFAALDAKVWLRLILAGLFLMLNYVSFVYSLDYLAPGAAQLNFQTSPFFLAFGGVLFFKERLNAIQLSCFASLALGMLMFFHPFLDFSATDNHEIWLGVMIVQFSALSWTTYALLQKSLLNRLSPANVLLVIYALGIFAMAPFSDFSQFAQMNSFDWQVALFCAANTLIAYGCFGQSMKYWPTAQVSAMLALTPVFSFSATALVVSIGWWPEVFRADELDALSLFGIGVIIVSVMVVQLLPLYRQRRARRLQPI | failed
9 | MAKKVAVLAVNPVNGCGLFQYLEAFFENGISYKVFAVSDTKEIKTNSGMVLIVDDVIANLKGHEDEFDALVFSCGDAVPVFQQYANQPYNVDLMEVIKTFGEKGKMMIGHCAGAMMFDFTGITKGKKVAVHPLAKPAIQNGIATDEKSEIDGNFFTAQDENTIWTMLPKVIEALK | not failed
10 | LQCEICGFTCRQKASLNWHQRKHAETVAALRFPCEFCGKRFEKPDSVAAHRSKSHPALLLAPQES | not failed
11 | MITFIIHSVSAETASESLLSKLAEAKDYLRIQPSVSSRILKKHLANIGQLTINDQLSWHQNLLRASIALNDLNQVEKTVKVMLSYPELEKKTDKFVSLLSSLGIFLRRTGHPNESILLFNCGLEQPIKNGKQKISLLISKGSSLSSLNKYSQAKTTYAQALQLAKQQNSEVLISAIYNTLGIMALKQGNYTLAKEYLVNALQLSQKISRRSGQIVAGLQLLRLSILSDEPMLYDRLHYRISRLTLVSESEVRHAYLFWLEKAHKASKGNKLSAQEQDELLSKLDQIKPISVSLYNQLVETLAEPMGITSLALINESSEYQGDLLNNIHQCKNIE | failed
12 | MKKGTVLNSEISSVISRLGHTDTLVVCDAGLPIPNSTARIDMALTQGVPSFMQVVDVVTREMQVEAAILATEIKQQNPQLHETLLTHLEQLQQHQGNTIKISYTTHEQFKKLTADSQAVIRSGECSPYANVILCAGVTF | not failed
13 | MMDSVKNASENISRRLSRTWDHISDGWRELVHHGSDALTHFVHRKGEEDKGQEAAASTPAFPRWSILAGDMEETDREIVVRIEVPGMEKKDFEISIEGKTLSLRGEKRFERDTNDSKYHVMERAYGVFQRTLPLPVEVNEDKAEADYKNGVLTVRLPKLNVEKRRFISIS | failed
14 | ARFYSDGLKLAGTLFVPDDYEPGQKRPAVLICHGRFAIKEWVPSRWTPHFLAAGYVCMVFDYRNLGESEGTPGRIIPDEEVRDARHALTYLQCQPEVDPARIGALGWGLGGGVAVSAAAHDARIKAVVCAIGVANGGRYGRVGMSDAAWAARQEQIAADRRERVLTGRSARLPRTEILGRPDAQRAERHERQNWIDSLVAAVGPERAADPAKLGIPDEITLESMEALYDFAPDAVVDRIAPRPLLIVHARDDHEFPFEHAADMYERAAQPKQLIAVEDAGHLDWIDPAHPSQQVYVPQVVAWMQAQL | not failed
15 | MTEPCYVMVDQRFDEFVDTARAPEQIVHGFAWTEGPVWLDGAPFFNDIANKRMMRWTKQACAEVALDNSEFANGNTLDGAGQVVSGEHAGRRVIRRPDPTDPSAVEVIAERSEGKRLNSPNEVVVRSDGSVWFTNPPYGINSDIEGYPAESEIGGCFVFCPDPDGTLHAVATEFDKPNELAFSPDECRLFVADSGAIRGAIFPGIDDDLPHHVRVFDVDGVTLSNGRVFAVVAPGAPDGFRVDHEGYVWTSALDGIHCLSPEGALIGKIWLPRQTSIICFGGPPGQTMFITSSDKVYRVESTRRDAAHALRDRERNAE | failed
16 | SESQDIKALQKELEQFAKLLKQKRITLGYTQADVGLTLGVLFGKVFSQTTICRFEALQLSFKNMCKLRPLLQKWVEEADNNENLQEICKAETLVQARKRKRTSIENRVRGNLENLFLQCPKPTLQQISHIAQQLGLEKDVVRVWFCNRRQKGKRSSSDYAQ | not failed
17 | MDSIQESDVLNAVKTKLPPCCLRIFRNKIILVGTYDLDKSTGYRSGSLDVFTMDLKLLCSNNTYGAILDLKLSPFDDTLICTAHSTGNIMLWRIRCTDKDDFQSNELDIHAIANLQLFEKDVLIASCHFSPLDCKKLLVTNTAGEAATIDIRTLSVQFTASAIAQAYSKLDKIDYEVQGATEKVIHVESGQFLKPHELECWTAEFGSLQPFQDVVFTGGDDSRIMAHDLRSKEFIWSNNRIHDAGVVSIKCSQPNFRNNKPTSIITGSYDDNIRSLDLRMMGESIFPGANVPTVNKLACDLGGGVWRFVESPIDQEQSHHNGSDRLLVCCMYNGAKVVTMNDNSDEYFQIQHYLKKGHDSMCYGGDWSNSLIATCSFYDNSLQTWIV | failed
18 | MIELEGVPELVDPVMVAAFEGWNDAGDAASTAVAHLDREWKGEVFAALDAEDYYDFQVNRPTVFMEDGVRKITWPTTRLSVVRVGGDKPRDLVLVRGIEPSMRWRSFCNELLGFAHELGVELVVVLGALLGDTPHTRPVPISGTTSDADLARRMDLEETKYEGPTGIVGILQEACTHAGVPAVSLWAAVPHYVSQPPNPKATLALLNRLEDLIGVRVPLGELPEDARAWQVGVDQLAAEDTEVAEYVQSLEEARDTA | not failed
19 | MKEGKWFASANNQNKFLDPRERGNILNYLKVCLLLARAVRRMHAAGLCHSDLSYKNVLIDPEQGHACIIDVDGLVVPGKFPPDVVGTPDFIAPEVVKTSHLLKEDPQRILPNITTDRHALSVLIYMYLFYRHPLRGGKIHDMDDEVRDESLAMGERALFIEHPTDRSNAVKLNQVKPSSLPWADPQKVPYTIMGPYLTQLFEKAFIDGLHDPSKRPTADEWETALVKTVDLIQPCQNTACEQKWYVFSGKTKPVCPYCLEHHHHHH | failed
20 | SESKIACHHTVHGFEQRRGLHSRNEKAMEYVAKGWSAIKEVERVIDYCELNDRRLIPLLRGAKENFELALEADNLNTHARYWLSKLHLKYHVPGACKAVGAALLVEAADMGNADAQYELGCRLRVENDHVQSDQQAFHYIENAVDQLHPGALYLLGIVYLTGDCVKQDVDSAIWCFHRASEKGHAGAAIAYGSLLLRGVQVPESLTKLNVVGVSPPKRARKNLENPEMNPLEMAKEQFQIAARAGCDLGLKWLQRVEQEEKLLMREQDNECAYV | failed
21 | MDKLEAMQVYVCVVDTHSFIRAAEVLGVPRSTVSRVVKELESWLKIQLLQRTTRKLSVTAEGRRYYEECKRVLADIAAMESSFPGRAAQPKGRFKVGMPQSLARHCIIPTLPAFLRQYPELELILCSSDSVEDIILQGYDCVIRAGRIDDSTTLVARPLASFNWVIAASPTYIERYGSPENLDDLQKHYAVGYLNHRTGRTTDWFFTREGEDYAMRVQETLVVDDTDAYIQAGIQGLGLIRVASYLVAPYLHSGALVTCMDNHSYDLPLALVYPQNRFLPPAVRAFYHWCKTALSQPEPFC | failed
22 | MDSMILGRYIPGDSIVHRLDPRSKLLAMMLLILIVFWANNPLTNLILFIATGIFIALSGVSLSFFIQGLKSMFFLIAFTTIFQLFFISNGNVLFEFSFVRITDYALQQAGIIFCRFVLIIFFSTLLTLTTMPLSLASAVEALLAPLKRVKVPVHEIGLMLSMSLRFVPTLMDDTTRIMNAQKARGVDFGEGSIVQKVKAMIPILIPLFATSLKRADSLAIAMEARGYQGGKGRSQYRQLKWTLKDTLTILVILVLGCCLFFLKS | failed
23 | MVVNKRLILILLFILNTAKSDELSWKGNDFTLYARQMPLAEVLHLLSENYDTAITISPLITATFSGKIPPGPPVDILNNLAAQYDLLTWFDGSMLYVYPASLLKHQVITFNILSTGRFIHYLRSQNILSSPGCEVKEITGTKAVEVSGVPSCLTRISQLASVLDNALIKRKDSAVSVSIYTLKYATAMDTQYQYRDQSVVVPGVVSVLREMSKTSVPTSSTNNGSPATQALPMFAADPRQNAVIVRDYAANMAGYRKLITELDQRQQMIEISVKIIDVNAGDINQLGIDWGTAVSLGGKKIAFNTGLNDGGASGFSTVISDTSNFMVRLNALEKSSQAYVLSQPSVVTLNNIQAVLDKNITFYTKLQGEKVAKLESITTGSLLRVTPRLLNDNGTQKIMLNLNIQDGQQSDTQSETDPLPEVQNSEIASQATLLAGQSLLLGGFKQGKQIHSQNKIPLLGDIPVVGHLFRNDTTQVHSVIRLFLIKASVVNNGISHGLEHHHHHH | not failed
